Laboratory results taken from article PMC11574312, “The role of ATP-binding Cassette subfamily B member 6 in the inner ear” (Nature Communications, 2024).

Biological target: the molecule itself
Assay: cryo-EM structure; ABCB6 WT purified in DDM/CHS, about 3.6 mg/mL on grids; apo, inward-facing; final refinement with C2 symmetry applied

B1: human ATP-binding cassette sub-family B member 6 (ABCB6) WT-Flag (natural protein)
chain: MVTVGNYCEAEGPVGPAWMQDGLSPCFFFTLVPSTRMALGTLALVLALPCRRRERPAGADSLSWGAGPRISPYVLQLLLATLQAALPLAGLAGRVGTARGAPLPSYLLLASVLESLAGACGLWLLVVERSQARQRLAMGIWIKFRHSPGLLLLWTVAFAAENLALVSWNSPQWWWARADLGQQVQFSLWVLRYVVSGGLFVLGLWAPGLRPQSYTLQVHEEDQDVERSQVRSAAQQSTWRDFGRKLRLLSGYLWPRGSPALQLVVLICLGLMGLERALNVLVPIFYRNIVNLLTEKAPWNSLAWTVTSYVFLKFLQGGGTGSTGFVSNLRTFLWIRVQQFTSRRVELLIFSHLHELSLRWHLGRRTGEVLRIADRGTSSVTGLLSYLVFNVIPTLADIIIGIIYFSMFFNAWFGLIVFLCMSLYLTLTIVVTEWRTKFRRAMNTQENATRARAVDSLLNFETVKYYNAESYEVERYREAIIKYQGLEWKSSASLVLLNQTQNLVIGLGLLAGSLLCAYFVTEQKLQVGDYVLFGTYIIQLYMPLNWFGTYYRMIQTNFIDMENMFDLLKEETEVKDLPGAGPLRFQKGRIEFENVHFSYADGRETLQDVSFTVMPGQTLALVGPSGAGKSTILRLLFRFYDISSGCIRIDGQDISQVTQASLRSHIGVVPQDTVLFNDTIADNIRYGRVTAGNDEVEAAAQAAGIHDAIMAFPEGYRTQVGERGLKLSGGEKQRVAIARTILKAPGIILLDEATSALDTSNERAIQASLAKVCANRTTIVVAHRLSTVVNADQILVIKDGCIVERGRHEALLSRGGVYADMWQLQQGQEETSEDTKPQTMER
notes: ABCB6, human, UniProt Q9NP58; the preparation holds the N-terminal TMD0, but the final model has no density for it; The protein was eluted from Flag resin with 3X Flag peptide and no tag cleavage is described
B1: binds.
